Laboratory results reported in publication PMC12464271.

Biological target: HPV-16 L1 capsid protein lacking the first twenty-nine N-terminal amino acids after the start codon (Human papillomavirus type 16) (UniProt P03101)
Experiment: SEC + other: negative-stain TEM; purified L1 in phosphate buffer pH 7.5 with the reducing agent DTT (20 mM); aggregates disassembled into soluble pentamers

How did the stoichiometry N turn out when “HPV-16 L1 capsid protein lacking the first twenty-nine N-terminal amino acids after the start codon (from UniProt P03101 1-505) (natural protein)” was run?
The stoichiometry N was 5.
